# Data: US20240200046
# System: T1, MIT 11-12x.40 meganuclease (MIT 11-12) (artificial (I-CreI derived, Chlamydomonas reinhardtii))
# T1 sequence: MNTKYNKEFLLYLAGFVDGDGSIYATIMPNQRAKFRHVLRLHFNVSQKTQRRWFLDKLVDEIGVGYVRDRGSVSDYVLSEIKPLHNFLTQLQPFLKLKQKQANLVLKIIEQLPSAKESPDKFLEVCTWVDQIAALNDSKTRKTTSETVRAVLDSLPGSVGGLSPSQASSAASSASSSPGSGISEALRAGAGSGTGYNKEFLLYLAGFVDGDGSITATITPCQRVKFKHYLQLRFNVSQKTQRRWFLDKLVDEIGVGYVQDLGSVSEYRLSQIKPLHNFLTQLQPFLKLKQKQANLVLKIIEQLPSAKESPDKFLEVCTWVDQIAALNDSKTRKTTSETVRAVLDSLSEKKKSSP
# Assay: cell_activity
# Details: CHO split-GFP recombination assay, 48 h
substance,measurement,value
wild-type mtDNA tRNA-Ala target site,activity,< 5 % GFP+ cells
